Test results taken from article PMC3299084 (Journal of Medicinal Chemistry, 2012).
Peptide text beside a SMILES is read from it. * marks the point of attachment. X1 = CC(=O)O[C@H]1C(=O)[C@@]2(C)[C@H]([C@H](OC(=O)c3ccccc3)[C@]3(O)C[C@H](OC(=O)[C@H](OC(=O)COCC(=O)OCCCCCCn4cc(CCCC(=O)*)nn4)[C@@H](NC(=O)c4ccccc4)c4ccccc4)C(C)=C1C3(C)C)[C@]1(OC(C)=O)CO[C@@H]1C[C@@H]2O

Assays:
Plasma stability = format: in vitro ADME; conditions: rat, plasma (fresh)
PC3 cells [1] = experiment: Release of native paclitaxel in the presence of PC3 cells; format: cell-based, human; conditions: in the presence of PC3 cells (data not shown)
PC3 cells [2] = experiment: ATP-Lite analysis of cell viability; format: cell-based, human; conditions: 72 hours, 10 nM, EphA2 overexpressing PC3
Microsomal stability = format: in vitro ADME; conditions: rat, liver microsomes, pH 7.2
PC3 tumor xenografts = conditions: intravenous, twice weekly for 3 weeks
[3] = Bio-distribution: PTX levels in tumor and plasma by LC-MS/MS; format: in vivo, mice
EphA2 [4] = target: T1, EphA2 (Homo sapiens, UniProt P29317); experiment: EphA2 internalization into lysosomes, confocal imaging; format: cell-based; conditions: PC3 cells, 2 h, 100 μM conjugate or 0.2 μg/mL ephrin-A1 Fc
EphA2 [5] = target: T1, EphA2; experiment: Quantum dot internalization into lysosomes; conditions: PC3 prostate cancer cells (highly EphA2 expressing), 100 μM
EphA2 Fc = EphA2 Fc (Homo sapiens, UniProt P29317); experiment: ELISA displacement of ephrin-A5 AP from immobilized EphA2 Fc; conditions: ephrin-A5 AP binding to EphA2 Fc
EphA2 Fc, sequence (P29317 24-537 limits assumed): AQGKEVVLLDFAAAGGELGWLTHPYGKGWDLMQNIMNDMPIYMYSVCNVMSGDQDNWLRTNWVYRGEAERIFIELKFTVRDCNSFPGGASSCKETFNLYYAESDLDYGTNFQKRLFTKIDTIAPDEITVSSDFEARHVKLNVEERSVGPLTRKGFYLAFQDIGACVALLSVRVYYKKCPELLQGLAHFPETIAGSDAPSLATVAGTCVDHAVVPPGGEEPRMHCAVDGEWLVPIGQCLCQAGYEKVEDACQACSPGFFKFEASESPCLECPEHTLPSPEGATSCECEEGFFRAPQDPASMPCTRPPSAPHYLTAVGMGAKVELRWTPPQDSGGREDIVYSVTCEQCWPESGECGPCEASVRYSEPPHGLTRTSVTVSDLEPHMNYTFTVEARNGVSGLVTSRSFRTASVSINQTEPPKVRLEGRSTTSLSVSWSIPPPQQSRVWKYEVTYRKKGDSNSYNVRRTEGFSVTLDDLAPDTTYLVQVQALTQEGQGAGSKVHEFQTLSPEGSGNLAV

T1 sequence (P29317 24-976): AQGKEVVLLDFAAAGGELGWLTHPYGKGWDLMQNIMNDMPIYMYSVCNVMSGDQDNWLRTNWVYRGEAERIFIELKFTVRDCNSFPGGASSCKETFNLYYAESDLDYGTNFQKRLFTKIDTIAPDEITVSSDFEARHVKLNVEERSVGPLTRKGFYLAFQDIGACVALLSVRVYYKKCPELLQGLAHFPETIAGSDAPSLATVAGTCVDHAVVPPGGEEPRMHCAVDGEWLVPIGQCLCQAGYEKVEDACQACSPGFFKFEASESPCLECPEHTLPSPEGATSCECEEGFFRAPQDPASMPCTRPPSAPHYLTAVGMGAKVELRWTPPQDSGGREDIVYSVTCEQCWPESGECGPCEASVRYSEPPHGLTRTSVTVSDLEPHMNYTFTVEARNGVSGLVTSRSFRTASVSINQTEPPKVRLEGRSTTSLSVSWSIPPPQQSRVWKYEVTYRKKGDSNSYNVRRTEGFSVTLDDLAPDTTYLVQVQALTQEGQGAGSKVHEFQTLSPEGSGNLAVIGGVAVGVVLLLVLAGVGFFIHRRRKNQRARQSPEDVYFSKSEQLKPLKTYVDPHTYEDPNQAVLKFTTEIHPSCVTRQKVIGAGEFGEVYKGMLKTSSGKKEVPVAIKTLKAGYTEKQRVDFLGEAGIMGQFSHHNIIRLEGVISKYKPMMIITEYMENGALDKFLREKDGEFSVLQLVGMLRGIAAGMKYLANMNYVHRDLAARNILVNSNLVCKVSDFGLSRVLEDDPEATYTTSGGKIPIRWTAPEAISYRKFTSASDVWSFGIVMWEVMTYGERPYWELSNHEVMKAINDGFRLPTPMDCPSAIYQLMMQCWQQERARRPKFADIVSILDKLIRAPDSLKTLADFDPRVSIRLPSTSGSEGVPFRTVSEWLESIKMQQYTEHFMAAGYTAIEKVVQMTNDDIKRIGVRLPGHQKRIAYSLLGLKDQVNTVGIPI

concentration at 30 min ([3]; SCID-beige, mouse, plasma, intravenous, 25 mg/kg) [ng/mL]	Structure (SMILES)	half-life at 1 μM (Plasma stability) [min]	time to nearly complete release of native paclitaxel (PC3 cells [1])	cell death / viability of PC3 cells (PC3 cells [2])	half-life at 4 μM (Microsomal stability) [min]	signs of toxicity (PC3 tumor xenografts)	mouse body weights (PC3 tumor xenografts; versus vehicle control)	Plasma levels of PTX ([3]; 30 min after single equimolar intravenous dose (PTX 25 mg/kg)) [ng/mL]	EphA2 internalization into lysosomes (EphA2 [4])	Qdot uptake / targeting of cells (EphA2 [5])	displacement of ephrin-A5 (EphA2 Fc)
	CSCC[C@H](NC(=O)[C@H](CCSC)NC(=O)[C@@H]1CCCN1C(=O)[C@@H](NC(=O)[C@H](CO)NC(=O)[C@H](CC(=O)O)NC(=O)[C@@H]1CCCN1C(=O)[C@H](Cc1ccc(O)cc1)NC(=O)[C@H](C)NC(=O)[C@H](CO)NC(=O)[C@@H](N)Cc1ccc(O)cc1)C(C)C)C(=O)N[C@@H](CO)C(=O)N[C@@H](CCCCNC(=O)CCCc1cn(CCCCCCOC(=O)COCC(=O)O[C@@H](C(=O)O[C@H]2C[C@@]3(O)[C@@H](OC(=O)c4ccccc4)[C@@H]4[C@]5(OC(C)=O)CO[C@@H]5C[C@H](O)[C@@]4(C)C(=O)[C@H](OC(C)=O)C(=C2C)C3(C)C)[C@@H](NC(=O)c2ccccc2)c2ccccc2)nn1)C(=O)O [YSA-PTX]	43	about 60 minutes	retained the ability of paclitaxel to induce cell death at low nanomolar concentrations	23	no adverse signs of toxicity	not affected	998 ± 742			
	CSCC[C@H](NC(=O)[C@H](C)NC(=O)[C@H](CCSC)NC(=O)[C@H](CO)NC(=O)[C@@H]1CCCN1C(=O)[C@H](Cc1ccc(O)cc1)NC(=O)[C@@H](N)CC(=O)O)C(=O)N[C@@H](Cc1ccc(O)cc1)C(=O)N[C@@H](CO)C(=O)N1CCC[C@H]1C(=O)N[C@@H](CO)C(=O)N[C@H](C(=O)N[C@@H](CCCCNC(=O)CCCc1cn(CCCCCCOC(=O)COCC(=O)O[C@@H](C(=O)O[C@H]2C[C@@]3(O)[C@@H](OC(=O)c4ccccc4)[C@@H]4[C@]5(OC(C)=O)CO[C@@H]5C[C@H](O)[C@@]4(C)C(=O)[C@H](OC(C)=O)C(=C2C)C3(C)C)[C@@H](NC(=O)c2ccccc2)c2ccccc2)nn1)C(=O)O)C(C)C [DYP-PTX, DYPSMAMYSPSV- K*-PTX] (H-DYPSMAMYSPSVK(X1)-OH; N-terminus and C-terminus assumed)			no significant cell killing					does not trigger EphA2 internalization	does not target PC3 cells	neither of the control compounds, DYP motif nor DYP-PTX conjugate, show any detectable displacement of ephrin-A5
771 ± 585	CC(=O)O[C@H]1C(=O)[C@@]2(C)[C@H]([C@H](OC(=O)c3ccccc3)[C@]3(O)C[C@H](OC(=O)[C@H](O)[C@@H](NC(=O)c4ccccc4)c4ccccc4)C(C)=C1C3(C)C)[C@]1(OC(C)=O)CO[C@@H]1C[C@@H]2O [PTX, paclitaxel, reference compound]										
